In general, Kd refers to the equilibrium constant for the complex coming apart.

Assay [1] addresses T1, recombinant human BTN3A1 (human, UniProt O00481 30-254).
T1 construct: Soluble form of the antigen used in SPR; also called rhBTN3A1; recombinant BTN3A1 protein
In words: SPR.

Assay [2] addresses T2, recombinant human PD-1 (human, UniProt Q15116 25-167, limits assumed).
T2 construct: Soluble antigen in SPR; also called rhPD-1
In words: SPR. For orientation: In SPR one partner is held on a chip, and binding of the other changes the refractive index at the surface.

For assay [3], the target named is T3, PD-1 at the surface of Jurkat-PD-1 cells (human, UniProt Q15116 25-288). In words: cell-based or functional assay.
Assay [4] deals with T4, BTN3A1 at the surface of HEK-BTN3A1 cells (human, UniProt O00481 30-513).
T4 construct: HEK 293T BTN2A/BTN3A KO cells transduced with a BTN3A1 expressing vector
In words: flow cytometry, HEK-BTN3A1 cells. (In general: Flow cytometry measures light scatter and fluorescence of single cells or particles in a stream.)

Assay [5] concerns the target T3, PD-1 at the surface of Jurkat-PD-1 cells. In words: flow cytometry, Jurkat-PD-1 cells.

T3 sequence (Q15116 25-288): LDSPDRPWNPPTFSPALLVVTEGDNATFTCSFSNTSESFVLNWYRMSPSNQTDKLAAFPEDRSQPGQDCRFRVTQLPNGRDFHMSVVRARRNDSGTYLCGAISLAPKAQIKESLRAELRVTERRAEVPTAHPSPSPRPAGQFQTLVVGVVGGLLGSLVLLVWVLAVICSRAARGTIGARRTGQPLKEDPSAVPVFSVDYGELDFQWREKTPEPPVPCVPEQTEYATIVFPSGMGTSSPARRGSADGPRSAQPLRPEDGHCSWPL
T2 sequence (Q15116 25-167 limits assumed): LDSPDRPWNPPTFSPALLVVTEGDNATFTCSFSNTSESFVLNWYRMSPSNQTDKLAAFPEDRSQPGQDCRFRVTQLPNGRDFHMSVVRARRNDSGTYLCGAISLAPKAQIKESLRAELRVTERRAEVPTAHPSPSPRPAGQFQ
T1 sequence (O00481 30-254 limits assumed): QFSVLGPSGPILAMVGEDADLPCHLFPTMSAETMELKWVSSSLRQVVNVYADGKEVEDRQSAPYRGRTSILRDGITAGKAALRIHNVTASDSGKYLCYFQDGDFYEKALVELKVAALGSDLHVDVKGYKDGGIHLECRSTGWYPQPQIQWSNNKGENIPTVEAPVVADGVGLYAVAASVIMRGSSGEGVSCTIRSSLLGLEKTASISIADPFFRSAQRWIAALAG
T4 sequence (O00481 30-513 limits assumed): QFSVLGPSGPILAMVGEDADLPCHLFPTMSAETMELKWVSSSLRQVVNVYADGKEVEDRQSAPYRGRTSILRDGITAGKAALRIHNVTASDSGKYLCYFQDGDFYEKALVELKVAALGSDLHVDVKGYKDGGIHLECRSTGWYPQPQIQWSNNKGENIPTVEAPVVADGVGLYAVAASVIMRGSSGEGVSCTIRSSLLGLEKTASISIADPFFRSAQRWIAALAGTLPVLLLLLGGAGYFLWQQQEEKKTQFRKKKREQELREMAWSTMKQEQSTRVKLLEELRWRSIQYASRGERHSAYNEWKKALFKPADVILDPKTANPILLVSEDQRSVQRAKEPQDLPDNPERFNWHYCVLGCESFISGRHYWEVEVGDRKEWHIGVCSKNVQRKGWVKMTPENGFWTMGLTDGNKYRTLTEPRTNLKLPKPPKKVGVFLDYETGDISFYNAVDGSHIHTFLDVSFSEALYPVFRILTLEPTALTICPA

B1: bsAb033 (bispecific antibody)
heavy (part 1 of 2): QVQLVQSGAEVKKPGASVKLSCKASGYIFTRYYMYWVKQRPGQGLEWIGEINPNNGGTKFNEKFKNRATLTVDKSISTAYMELSRLRSDDTAVYYCSREDDYDGTPFAMDYWGQGTLVTVSS
heavy (part 2 of 2): GGGGSGGGGSGGGGSGGGGSQVQLVQSGVEVKKPGASVKVSCKASGYTFTNYYMYWVRQAPGQGLEWMGGINPSNGGTNFNEKFKNRVTLTTDSSTTTAYMELKSLQFDDTAVYYCARRDYRFDMGFDYWGQGTTVTVSSGGGGSGGGGSGGGGSGGGGSEIVLTQSPATLSLSPGERATLSCRASKGVSTSGYSYLHWYQQKPGQAPRLLIYLASYLESGVPARFSGSGSGTDFTLTISSLEPEDFAVYYCQHSRDLPLTFGGGTKVEIK
heavy: QVQLVQSGAEVKKPGASVKLSCKASGYIFTRYYMYWVKQRPGQGLEWIGEINPNNGGTKFNEKFKNRATLTVDKSISTAYMELSRLRSDDTAVYYCSREDDYDGTPFAMDYWGQGTLVTVSS
light: not shown
notes: IgG anti-BTN3A, one scFv anti-PD-1; not shown: IgG1 CH1-hinge-CH2-CH3
Consider B1, for which the dissociation constant (Kd) in assay [1] turned out to be 0.067 nM. Also, the Kd in assay [2] was 0.786 nM. For the same molecule, in assay [3], the “Jurkat-PD-1 activation at 10 nM” value was 1.6 fold-change to medium and the “Jurkat-PD-1 activation at 100 nM” value is 6 fold-change to medium. Also, in assay [4], the “MFI at 10 nM” value amounted to 584000 MFI and the “MFI at 100 nM” value is 1.18e+06 MFI. Moreover, in assay [5], the “MFI at 10 nM” value came out at 194000 MFI and the “MFI at 100 nM” value stood at 340000 MFI.

B2: bsAb056 (bispecific antibody)
heavy 1: GGGGSGGGGSGGGGSGGGGSQVQLVQSGVEVKKPGASVKVSCKASGYTFTNYYMYWVRQAPGQGLEWMGGINPSNGGTNFNEKFKNRVTLTTDSSTTTAYMELKSLQFDDTAVYYCARRDYRFDMGFDYWGQGTTVTVSSGGGGSGGGGSGGGGSGGGGSEIVLTQSPATLSLSPGERATLSCRASKGVSTSGYSYLHWYQQKPGQAPRLLIYLASYLESGVPARFSGSGSGTDFTLTISSLEPEDFAVYYCQHSRDLPLTFGGGTKVEIK
heavy 2: QVQLVQSGAEVKKPGASVKLSCKASGYIFTRYYMYWVKQRPGQGLEWIGEINPNNGGTKFNEKFKNRATLTVDKSISTAYMELSRLRSDDTAVYYCSREDDYDGTPFAMDYWGQGTLVTVSS
light: not shown
notes: one Fab arm anti-BTN3A, one scFv anti-PD-1; not shown: CH2-CH3 (Fc); IgG1 CH1-hinge-CH2-CH3
As to B2, the Kd turned out to be 0.065 nM in assay [1] and 2 nM in assay [2]. Further, in assay [3], the “Jurkat-PD-1 activation at 10 nM” value was 1.5 fold-change to medium. Moreover, in assay [3], the “Jurkat-PD-1 activation at 100 nM” value is 3.4 fold-change to medium. For the same molecule, the “MFI at 10 nM” value in assay [4] turned out to be 519000 MFI. Besides, the “MFI at 100 nM” value in assay [4] was determined as 1e+06 MFI; in assay [5], 334000 MFI.

B3: bsAb052 (bispecific antibody)
heavy (part 1 of 2): QVQLVQSGAEVKKPGASVKLSCKASGYIFTRYYMYWVKQRPGQGLEWIGEINPNNGGTKFNEKFKNRATLTVDKSISTAYMELSRLRSDDTAVYYCSREDDYDGTPFAMDYWGQGTLVTVSS
heavy (part 2 of 2): GGGGSGGGGSGGGGSGGGGSQVQLVQSGVEVKKPGASVKVSCKASGYTFTNYYMYWVRQAPGQGLEWMGGINPSNGGTNFNEKFKNRVTLTTDSSTTTAYMELKSLQFDDTAVYYCARRDYRFDMGFDYWGQGTTVTVSSGGGGSGGGGSGGGGSGGGGSEIVLTQSPATLSLSPGERATLSCRASKGVSTSGYSYLHWYQQKPGQAPRLLIYLASYLESGVPARFSGSGSGTDFTLTISSLEPEDFAVYYCQHSRDLPLTFGGGTKVEIK
heavy: GGGGSGGGGSGGGGSGGGGSQVQLVQSGVEVKKPGASVKVSCKASGYTFTNYYMYWVRQAPGQGLEWMGGINPSNGGTNFNEKFKNRVTLTTDSSTTTAYMELKSLQFDDTAVYYCARRDYRFDMGFDYWGQGTTVTVSSGGGGSGGGGSGGGGSGGGGSEIVLTQSPATLSLSPGERATLSCRASKGVSTSGYSYLHWYQQKPGQAPRLLIYLASYLESGVPARFSGSGSGTDFTLTISSLEPEDFAVYYCQHSRDLPLTFGGGTKVEIK
light: not shown
notes: one Fab arm anti-BTN3A, two scFv anti-PD-1; not shown: IgG1 CH1-hinge-CH2-CH3; CH2-CH3 (Fc)
B3: the Kd in assay [1] was found to be 0.069 nM; in assay [2], 1.8 nM. Moreover, the “Jurkat-PD-1 activation at 10 nM” value in assay [3] was 5.3 fold-change to medium. Also, in assay [3], the “Jurkat-PD-1 activation at 100 nM” value is 7.6 fold-change to medium. For the same molecule, the “MFI at 10 nM” value in assay [4] is 321000 MFI; in assay [5], 185000 MFI. The “MFI at 100 nM” value amounted to 785000 MFI in assay [4] and 366000 MFI in assay [5].

B4: bsAb038 (bispecific antibody)
heavy (part 1 of 2): QVQLVQSGAEVKKPGASVKLSCKASGYIFTRYYMYWVKQRPGQGLEWIGEINPNNGGTKFNEKFKNRATLTVDKSISTAYMELSRLRSDDTAVYYCSREDDYDGTPFAMDYWGQGTLVTVSS
heavy (part 2 of 2): GGGGSGGGGSGGGGSGGGGSEIVLTQSPATLSLSPGERATLSCRASKGVSTSGYSYLHWYQQKPGQAPRLLIYLASYLESGVPARFSGSGSGTDFTLTISSLEPEDFAVYYCQHSRDLPLTFGGGTKVEIKGGGGSGGGGSGGGGSGGGGSQVQLVQSGVEVKKPGASVKVSCKASGYTFTNYYMYWVRQAPGQGLEWMGGINPSNGGTNFNEKFKNRVTLTTDSSTTTAYMELKSLQFDDTAVYYCARRDYRFDMGFDYWGQGTTVTVSS
heavy: QVQLVQSGAEVKKPGASVKLSCKASGYIFTRYYMYWVKQRPGQGLEWIGEINPNNGGTKFNEKFKNRATLTVDKSISTAYMELSRLRSDDTAVYYCSREDDYDGTPFAMDYWGQGTLVTVSS
light: not shown
notes: as for B1
For the molecule B4, the Kd in assay [1] turned out to be 0.071 nM. Moreover, the dissociation constant Kd in assay [2] was 1.9 nM. Moreover, in assay [3], the “Jurkat-PD-1 activation at 10 nM” value was 1.5 fold-change to medium and the “Jurkat-PD-1 activation at 100 nM” value was 3.5 fold-change to medium. Besides, in assay [4], the “MFI at 10 nM” value was determined as 588000 MFI and the “MFI at 100 nM” value was 1.2e+06 MFI. Moreover, in assay [5], the “MFI at 10 nM” value is 160000 MFI and the “MFI at 100 nM” value turned out to be 294000 MFI.

B5: bsAb049 (bispecific antibody)
heavy 1: QVQLVQSGVEVKKPGASVKVSCKASGYTFTNYYMYWVRQAPGQGLEWMGGINPSNGGTNFNEKFKNRVTLTTDSSTTTAYMELKSLQFDDTAVYYCARRDYRFDMGFDYWGQGTTVTVSSGGGGSGGGGSGGGGSGGGGSEIVLTQSPATLSLSPGERATLSCRASKGVSTSGYSYLHWYQQKPGQAPRLLIYLASYLESGVPARFSGSGSGTDFTLTISSLEPEDFAVYYCQHSRDLPLTFGGGTKVEIKGGGGSGGGGSGGGGSGGGGSQVQLVQSGAEVKKPGASVKLSCKASGYIFTRYYMYWVKQRPGQGLEWIGEINPNNGGTKFNEKFKNRATLTVDKSISTAYMELSRLRSDDTAVYYCSREDDYDGTPFAMDYWGQGTLVTVSS
heavy 2: QVQLVQSGAEVKKPGASVKLSCKASGYIFTRYYMYWVKQRPGQGLEWIGEINPNNGGTKFNEKFKNRATLTVDKSISTAYMELSRLRSDDTAVYYCSREDDYDGTPFAMDYWGQGTLVTVSS
light: not shown
notes: as for B1
As for B5, in assay [1], the Kd is 0.101 nM. Moreover, the dissociation constant Kd in assay [2] turned out to be 0.856 nM. Moreover, in assay [3], the “Jurkat-PD-1 activation at 10 nM” value is 1.3 fold-change to medium and the “Jurkat-PD-1 activation at 100 nM” value was 2.3 fold-change to medium. For the same molecule, in assay [4], the “MFI at 10 nM” value turned out to be 460000 MFI and the “MFI at 100 nM” value is 740000 MFI. In assay [5], the “MFI at 10 nM” value came to 175000 MFI and the “MFI at 100 nM” value came out at 376000 MFI.

B6: bsAb047 (bispecific antibody)
heavy 1: EIVLTQSPATLSLSPGERATLSCRASKGVSTSGYSYLHWYQQKPGQAPRLLIYLASYLESGVPARFSGSGSGTDFTLTISSLEPEDFAVYYCQHSRDLPLTFGGGTKVEIKGGGGSGGGGSGGGGSGGGGSQVQLVQSGVEVKKPGASVKVSCKASGYTFTNYYMYWVRQAPGQGLEWMGGINPSNGGTNFNEKFKNRVTLTTDSSTTTAYMELKSLQFDDTAVYYCARRDYRFDMGFDYWGQGTTVTVSSGGGGSGGGGSGGGGSGGGGSQVQLVQSGAEVKKPGASVKLSCKASGYIFTRYYMYWVKQRPGQGLEWIGEINPNNGGTKFNEKFKNRATLTVDKSISTAYMELSRLRSDDTAVYYCSREDDYDGTPFAMDYWGQGTLVTVSS
heavy 2: QVQLVQSGAEVKKPGASVKLSCKASGYIFTRYYMYWVKQRPGQGLEWIGEINPNNGGTKFNEKFKNRATLTVDKSISTAYMELSRLRSDDTAVYYCSREDDYDGTPFAMDYWGQGTLVTVSS
light: not shown
notes: as for B1
Turning to B6, in assay [1], the Kd came out at 0.168 nM. Also, the dissociation constant Kd in assay [2] was 1.4 nM. For the same molecule, in assay [3], the “Jurkat-PD-1 activation at 10 nM” value is 3.1 fold-change to medium and the “Jurkat-PD-1 activation at 100 nM” value is 8.3 fold-change to medium. In assay [4], the “MFI at 10 nM” value was 536000 MFI and the “MFI at 100 nM” value came to 866000 MFI. In addition, in assay [5], the “MFI at 10 nM” value was found to be 264000 MFI and the “MFI at 100 nM” value stood at 364000 MFI.

B7: bsAb025 (bispecific antibody)
heavy: QVQLVQSGVEVKKPGASVKVSCKASGYTFTNYYMYWVRQAPGQGLEWMGGINPSNGGTNFNEKFKNRVTLTTDSSTTTAYMELKSLQFDDTAVYYCARRDYRFDMGFDYWGQGTTVTVSSASTKGPSVFPLAPSSKSTSGGTAALGCLVKDYFPEPVTVSWNSGALTSGVHTFPAVLQSSGLYSLSSVVTVPSSSLGTQTYICNVNHKPSNTKVDKKVEPKSCDKTHTGGSSGSGSGSTGTSSSGTGTSAGTTGTSASTSGSGSGGGGGSGGGGSAGGEIVLTQSPATLSLSPGERATLSCRASKGVSTSGYSYLHWYQQKPGQAPRLLIYLASYLESGVPARFSGSGSGTDFTLTISSLEPEDFAVYYCQHSRDLPLTFGGGTKVEIKRTVAAPSVFIFPPSDEQLKSGTASVVCLLNNFYPREAKVQWKVDNALQSGNSQESVTEQDSKDSTYSLSSTLTLSKADYEKHKVYACEVTHQGLSSPVTKSFNRGECGGGGSGGGGSGGGGSGGGGSQVQLVQSGAEVKKPGASVKLSCKASGYIFTRYYMYWVKQRPGQGLEWIGEINPNNGGTKFNEKFKNRATLTVDKSISTAYMELSRLRSDDTAVYYCSREDDYDGTPFAMDYWGQGTLVTVSSASTKGPSVFPLAPSSKSTSGGTAALGCLVKDYFPEPVTVSWNSGALTSGVHTFPAVLQSSGLYSLSSVVTVPSSSLGTQTYICNVNHKPSNTKVDKRVEPKSCDKTHTCPPCPAPEFEGGPSVFLFPPKPKDTLMISRTPEVTCVVVDVSHEDPEVKFNWYVDGVEVHNAKTKPREEQYNSTYRVVSVLTVLHQDWLNGKEYKCKVSNKALPASIEKTISKAKGQPREPQVYTLPPSREEMTKNQVSLTCLVKGFYPSDIAVEWESNGQPENNYKTTPPVLDSDGSFFLYSKLTVDKSRWQQGNVFSCSVMHEALHNHYTQKSLSLSPG
light: not shown
notes: IgG anti-BTN3A, scFab anti-PD-1
On to B7, for which the Kd is 0.154 nM in assay [1] and 1.1 nM in assay [2]. Moreover, the “MFI at 10 nM” value in assay [4] is 177000 MFI; in assay [5], 110000 MFI. The results for the “MFI at 100 nM” value in assay [4] and in assay [5] were 669000 MFI and 358000 MFI, respectively.
